Measured values from patent publication US20250011363A1, “OPTIMIZED SHORTENED PEPTIDE THAT BINDS TO ACETYLCHOLINE RECEPTOR, AND USE THEREOF” (SKINMED CO., LTD., priority 2021, published 2025).

molecular target: acetylcholine receptor; experiment: SPR, receptor immobilized, peptide 10 uM

Binder | Binding affinity [RU] | Binding affinity (RU)
KRLFCR [6mer-1-198] |  | 148
RRRIQR [6mer-1-201] |  | 151
RKQYYR [6mer-1-173] |  | 123
KRGYRR [6mer-1-177] |  | 121
KRQYQR [6mer-1-192] |  | 127
KRQICR [6mer-1-184] |  | 139
RRRIQK [6mer-1-175] |  | 137
KVFCKK [6mer-2-137] | 135 | 
KRVQLK [6mer-1-193] |  | 149
RKLVRK [6mer-1-180] |  | 146
KRQLRK [6mer-1-185] |  | 153
RKWRRK [6mer-1-196] |  | 142
RKLYQR [6mer-1-200] |  | 142
RKRYQK [6mer-1-178] |  | 139
KRGISR [6mer-1-195] |  | 122
RKLYYR [6mer-1-190] |  | 153
RKSLQK [6mer-1-188] |  | 122
RKQFQK [6mer-1-171] |  | 123
RRRVYK [6mer-1-186] |  | 147

Binder | Binding affinity [RU] | Binding affinity (RU)
KKSYSK [6mer-1-189] |  | 137
KQRRRK [6mer-2-138] | 153 | 
RRSIRR [6mer-1-197] |  | 139
KKQVQK [6mer-1-199] |  | 151
RKWQRR [6mer-1-194] |  | 144
RKLFYK [6mer-1-187] |  | 139
KKVYCK [6mer-1-176] |  | 121
KRGICK [6mer-1-182] |  | 147
RKSFYR [6mer-1-170] |  | 148
RRQQSK [6mer-1-169] |  | 153
KLFRKK [6mer-2-139] | 149 | 
KRWFCK [6mer-1-168] |  | 131
KKQILK [6mer-1-191] |  | 139
KKGVCR [6mer-1-174] |  | 154
RRLIRK [6mer-1-172] |  | 153
KRSQYR [6mer-1-179] |  | 148
KKGVLR [6mer-1-181] |  | 148
KKGQTR [6mer-1-183] |  | 121

Now from value to binder:

Binding affinity [RU] | Binding affinity (RU) | Binder
145 |  | RSFLRR [6mer-2-158]
124 |  | RVYSRR [6mer-2-153]
153 |  | RSYRKK [6mer-2-157]
133 |  | RQYTKR [6mer-2-147]
136 |  | KRILKR [6mer-2-150]
145 |  | KGQYKK [6mer-2-148]
127 |  | KGLQRR [6mer-2-156]
128 |  | RRVCRR [6mer-2-143]
139 |  | RQFYKR [6mer-2-152]
148 |  | KRVTKR [6mer-2-154]
142 |  | KGRLKK [6mer-2-140]
121 |  | RWVLRR [6mer-2-142]
128 |  | RQYYKK [6mer-2-145]
142 |  | KQLRKR [6mer-2-151]
154 |  | KWYQKK [6mer-2-141]
133 |  | KSIRRK [6mer-2-144]
135 |  | KQLLKR [6mer-2-146]
139 |  | KGVYKK [6mer-2-155]
127 |  | RQYYRK [6mer-2-159]
127 |  | KGQQRK [6mer-2-149]
